This note sets out measurements from US20260049134A1 (UNIVERSITY OF FLORIDA RESEARCH FOUNDATION, published 2026).

Common to all, as to assay: ELISA on coated protein
(ELISA stands for enzyme-linked immunosorbent assay.)

For one test, the target named is T1, DCC.
T1 construct: also called DCC-His (R&D Systems)
T1 chain: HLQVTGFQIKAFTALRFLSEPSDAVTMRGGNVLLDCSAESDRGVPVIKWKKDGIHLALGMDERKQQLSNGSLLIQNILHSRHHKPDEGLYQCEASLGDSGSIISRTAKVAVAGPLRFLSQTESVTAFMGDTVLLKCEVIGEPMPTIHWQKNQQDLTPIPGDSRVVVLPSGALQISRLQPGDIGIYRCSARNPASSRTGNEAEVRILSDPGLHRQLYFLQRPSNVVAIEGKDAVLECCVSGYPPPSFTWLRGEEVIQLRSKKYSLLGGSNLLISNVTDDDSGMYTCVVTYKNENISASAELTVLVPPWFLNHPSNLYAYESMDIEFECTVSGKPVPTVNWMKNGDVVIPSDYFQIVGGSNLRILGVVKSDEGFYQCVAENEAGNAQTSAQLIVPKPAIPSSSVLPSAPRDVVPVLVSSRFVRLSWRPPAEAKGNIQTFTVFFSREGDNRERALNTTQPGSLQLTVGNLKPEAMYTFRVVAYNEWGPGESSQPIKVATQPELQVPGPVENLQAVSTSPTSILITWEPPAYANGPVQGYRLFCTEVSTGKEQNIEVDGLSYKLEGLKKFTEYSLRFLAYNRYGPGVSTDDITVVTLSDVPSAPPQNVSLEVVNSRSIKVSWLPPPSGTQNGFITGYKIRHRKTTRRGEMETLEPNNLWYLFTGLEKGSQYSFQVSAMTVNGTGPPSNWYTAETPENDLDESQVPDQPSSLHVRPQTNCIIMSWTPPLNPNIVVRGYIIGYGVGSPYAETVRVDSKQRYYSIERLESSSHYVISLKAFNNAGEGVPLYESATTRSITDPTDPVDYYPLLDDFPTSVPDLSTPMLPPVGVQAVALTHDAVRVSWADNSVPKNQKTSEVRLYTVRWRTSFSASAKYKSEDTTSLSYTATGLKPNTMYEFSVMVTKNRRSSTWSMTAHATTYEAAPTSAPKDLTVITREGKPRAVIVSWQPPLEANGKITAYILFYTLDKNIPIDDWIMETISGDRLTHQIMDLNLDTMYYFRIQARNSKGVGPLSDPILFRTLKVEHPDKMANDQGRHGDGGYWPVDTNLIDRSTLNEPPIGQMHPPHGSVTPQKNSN

Test [1] concerns the target T2, GARS-His (Sino Biological) (human, UniProt P41250 37-739, limits assumed).
T2 construct: Bought; also called GARS1; glycyl-tRNA synthetase; not shown: His tag of the bought protein
T2 sequence: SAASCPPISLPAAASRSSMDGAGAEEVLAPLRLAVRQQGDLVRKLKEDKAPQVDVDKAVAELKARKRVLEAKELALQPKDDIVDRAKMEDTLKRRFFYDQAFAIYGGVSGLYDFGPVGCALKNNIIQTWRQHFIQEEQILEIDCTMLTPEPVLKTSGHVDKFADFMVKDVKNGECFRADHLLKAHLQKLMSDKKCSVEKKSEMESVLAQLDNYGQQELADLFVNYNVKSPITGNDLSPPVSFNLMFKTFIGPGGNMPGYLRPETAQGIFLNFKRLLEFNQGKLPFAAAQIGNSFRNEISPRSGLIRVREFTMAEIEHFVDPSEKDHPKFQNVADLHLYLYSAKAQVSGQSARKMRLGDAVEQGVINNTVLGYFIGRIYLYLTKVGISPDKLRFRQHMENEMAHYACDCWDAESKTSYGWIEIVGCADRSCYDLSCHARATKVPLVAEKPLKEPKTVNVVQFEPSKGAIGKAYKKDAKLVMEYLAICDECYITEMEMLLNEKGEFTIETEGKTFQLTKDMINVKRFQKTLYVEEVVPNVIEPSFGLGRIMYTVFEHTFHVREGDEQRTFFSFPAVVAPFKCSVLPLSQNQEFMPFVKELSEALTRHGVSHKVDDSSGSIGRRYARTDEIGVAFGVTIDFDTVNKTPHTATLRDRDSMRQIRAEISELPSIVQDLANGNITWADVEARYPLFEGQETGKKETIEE

A further test has as its target T3, SELL.
T3 construct: also called SELL-Fc-His (R&D Systems); L-Selectin
T3 chain: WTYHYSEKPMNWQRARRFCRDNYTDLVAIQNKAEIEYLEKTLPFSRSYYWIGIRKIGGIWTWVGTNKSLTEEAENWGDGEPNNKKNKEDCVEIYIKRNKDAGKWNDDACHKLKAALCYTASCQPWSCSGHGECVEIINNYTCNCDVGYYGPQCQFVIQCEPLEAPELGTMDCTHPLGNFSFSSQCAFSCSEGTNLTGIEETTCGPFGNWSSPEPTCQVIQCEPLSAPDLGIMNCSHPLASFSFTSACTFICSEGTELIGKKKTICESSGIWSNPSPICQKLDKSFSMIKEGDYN

The next test has as its target T4, HHLA2.
T4 construct: also called HHLA2-Fc (R&D Systems); B7-H7; not shown: Fc part and any linker
T4 chain: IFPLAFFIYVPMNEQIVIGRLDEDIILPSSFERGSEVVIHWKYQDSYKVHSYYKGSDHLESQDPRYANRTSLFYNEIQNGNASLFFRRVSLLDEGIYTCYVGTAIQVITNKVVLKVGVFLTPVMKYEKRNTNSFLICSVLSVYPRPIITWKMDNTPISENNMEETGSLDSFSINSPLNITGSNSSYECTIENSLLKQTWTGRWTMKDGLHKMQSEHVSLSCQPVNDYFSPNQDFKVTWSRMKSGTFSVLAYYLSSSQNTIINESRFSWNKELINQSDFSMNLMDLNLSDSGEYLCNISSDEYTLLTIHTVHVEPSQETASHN

B1: TH9-0022 (antibody, human IgG1, kappa, L234A L235A, V domains shown)
VH: QSLEESGGRLVTPGTPLTLTCTVSGFSLSSYAMNWVRQAPGKGLEWIGIINSYGSTYYASWAKGRFTISKTSTTVDLKITSPTTEDTATYFCARVTYDSYGYGYAPYGMDLWGPGTLVTVSS
VL: LVMTQTPSSTSNAVGGTVTIKCQASQSIGNVLAWYQQKPGQPPKLLIYAASTLASGVPSRVGGSRSGTEYTLTISGVQREDAATYYCLGSDSDSDIAFGGGTELEILR
notes: also called TH9-022; negative control IgG1
Consider B1, for which the binding result (in the test with DCC; in test [1]; with SELL; with HHLA2) was “no binding (tested: 150 ng IgG1 per well)” throughout.
